Columns and labels:
U373MG cells = test: Growth inhibition by CPT-11 of U373MG cells; format: cell-based, human; conditions: for sensitization of cells to CPT-11: U373MG cells expressing the labelled enzyme
Method: Experiments were also performed in human brain tumor cells (U373MG) where the growth of the cells was examined in cells that expressed the mutant form of the human CE enzyme.
Experiments were also performed to determine whether cells expressing a secreted form of hCElm6 (SEQ ID NO:16) produced media that had CE activity.
(§1) Transfection of Cell Lines. Transient transfection of Cos7 cells was achieved by electroporation (Potter, et al. 1998. Cancer Res. 52:2646-2651). For the generation of stable cell lines, cDNAs were ligated into pIRESneo and U373MG cells were electroporated under similar conditions. Transfectants were selected in media containing 400 μg/ml of G418. Since the CE cDNA was linked via an internal ribosome entry sequence (IRES) to the neomycin gene, selection of individual G418-resistant clones was not necessary.
(§2) Construction of Adenovirus. Replication-deficient adenovirus expressing hCElm6 or rCE were constructed using standard protocols (Wierdl, et al. 2001. Cancer Res. 61:5078-5082). Multiplicity of infection (moi) was defined as the number of plaques produced in 1×10^6 293 cells in a total volume of 1 ml of media after incubation with virus for 1 hour.
Growth Inhibition Assays.

[1] = Carboxylesterase (CE) activity of whole cell sonicates of transiently transfected Cos7 cells, o-NPA substrate; format: biochemical
Method: (§3) Whole cell sonicates were monitored for CE activity. Results were expressed as nmoles o-nitrophenol produced per minute per milligram of total protein. To correct for differences in CE expression within transfected cells, the enzyme activity values were corrected for the level of immunoreactive CE protein as determined using a western blot analysis.
(§4) Carboxylesterase Assays. CE activity was determined using a spectrophotometric assay with 3 mM o-nitrophenyl acetate (o-NPA) as a substrate (Potter, et al. 1998. Cancer Res. 52:2646-2651; Wierdl, et al. 2001. Cancer Res. 61:5078-5082; Beaufay, et al. 1974. J. Cell Biol. 61:188-200). Data were expressed as nmoles o-nitrophenol produced per minute per milligram of protein. To correct for differences in CE expression within transfected cells, the enzyme activity values were corrected for the level of immuno-reactive CE protein as determined from western analyses.
as §1, with “necessary. Routinely, whole cell sonicates obtained from these pooled populations of cells contained 200-500 nmoles/min/mg of CE activity.” for “necessary.”
(§5) Western Analysis. Cell extracts were separated in 4-20% pre-cast SDS-PAGE gels (Invitrogen, Carlsbad, Calif.) and following transfer to Immobilon-P membranes by electroblotting (Matsuidaira. 1990. Methods Enzymol. 182:602-613), western analysis was performed using known methods (Morton & Potter. 1998. J. Pharmacol. Expt. Therap. 286:1066-1073). CEs were identified using an anti-peptide antibody raised against the C-terminal amino acids […] In all experiments, membranes were re-probed with an anti-TFIID antibody to confirm equal loading, and to correct for any differences in total protein. The molecular weight of immuno-reactive bands was determined using pre-stained molecular weight protein markers (Pierce, Rockford, Ill.). Densitometric quantitation of CE expression was performed using One-Dscan gel analysis software (Scanalytics Inc, Fairfax, Va.).

[2] = CPT-11 conversion assay (CPT-11 to SN-38) with extracts of transfected COS-7 cells, HPLC; format: biochemical; conditions: Cos7 cell extracts
Description: as §3
This was necessary since it was unclear whether the mutations would influence the ability of the CEs to metabolize o-NPA, which is used as a measure of enzyme activity.
CPT-11 Conversion Assays. […] An equal volume of acidified methanol was added to terminate the reactions and particulate matter was removed by centrifugation at 100,000 g for 5 minutes at 4° C. Concentrations of both drugs in the supernatant were then determined by HPLC (Guichard, et al. 1998. Clin. Cancer Res. 4:3089-3094; Morton, et al. 2000. Cancer Res. 60:4206-4210).
as §5

[3] = Kinetic parameters for CPT-11 hydrolysis by purified recombinant CEs; format: biochemical; conditions: hCE1 and rCE values rest on cited data
Method: To directly compare the abilities of the mammalian CEs to hydrolyze CPT-11, a series of biochemical studies were carried out using the purified proteins in vitro. These experiments determined the Km, Vmax, kcat and kcat/Km values for the different enzymes.
Protein Purification. […] For hiCE, an alternative purification procedure was developed using DEAE chromatography and elution with a pH/salt gradient.
Determination of Kinetic Parameters for Substrate Hydrolysis.

[4] = CE activity (o-NPA) in human tumor cell lines expressing CE after plasmid transfection or adenoviral transduction; format: biochemical; conditions: for CE Activity: ± SD, U373MG cells stably transfected (pIRESneo) expressing the enzyme
Description: […], it was observed that expression of hiCE following plasmid-mediated transfection was frequently lower than that seen with rCE or […]. […] Since expression of the transgene from this expression vector is co-regulated with the neo gene via an IRES sequence, selection with similar concentrations of G418 should result in cell lines that express approximately equal levels of recombinant protein. However, the average levels of CE activity in U373hiCE, U373hCE1 and U373hCE1m6 cells were 287.6±76.6, 1077.1±77.5, and 466.5±52.6 nmoles/min/mg, respectively.
as §4
as §1, with “necessary. Routinely, whole cell sonicates obtained from these pooled populations of cells contained 200-500 nmoles/min/mg of CE activity.” for “necessary.”
as §2

[5] = substrate: CCc1c2c(nc3ccc(OC(=O)N4CCC(N5CCCCC5)CC4)cc13)-c1cc3c(c(=O)n1C2)COC(=O)[C@]3(O)CC; test: purified protein, by the assay type; conditions: other: CPT-11 hydrolysis, hCE1m6
[6] = Table 3, Cos7 whole cell sonicates, 3 mM o-NPA, nmoles o-nitrophenol per min per mg
[7] = Table 4, rCE mutant panel, Cos7 extracts, o-NPA

Molecule	fold reduction in the IC50 value for CPT-11 (U373MG cells; U373MG cells expressing intracellular (u373IRESmut6) or secreted (U373IRESmut6C) form, FIG. 4)	CE Activity [1, 6]	CE Activity [1, 7]	CPT-11 Converting Activity ([2]; Table 3, 5 μM CPT-11, 1 hour, corrected for CE protein by western)	CPT-11 Converting Activity ([2]; Table 4, rCE mutant panel)	Ratio kcat/Km as compared to hCE1 [3]	CE Activity [4]	sensitization of cells to CPT-11 (U373MG cells)	average levels of CE activity ([4]; U373MG cells stably transfected with pIRESneo constructs, monitored over an extended time period)	Km [5]
secreted form of hCE1mut6: mutant human CE lacking the six C-terminal amino acid residues (Thr-Glu-His-Ile-Glu-Leu); expressed from pIRESmut6C (protein, Synthethic mutant human carboxylesterase, mutant human CE lacking the six C-terminal amino acid residues (Thr-Glu-His-Ile-Glu-Leu); expressed from pIRESmut6C) MWLRAFILATLSASAAWGHPSSPPVVDTVHGKVLGKFVSLEGFAQPVAIFLGIPFAKPPLGPLRFTPPQPAEPWSFVKNATSYPPMCTQDPKAGQLLSELFTNRKENIPLKLSEDCLYLNIYTPADLTKKNRLPVMVWIHGGGLMVGAASTYDGLALAAHENVVVVTIQYRLGIWGFFSTGDEHSRGNWGHLDQVAALRWVQDNIASFGGNPGSVTIFGESAGGESVSVLVLSPLAKNLFHRAISESGVALTSVLVKKGDVKPLAEQIAITAGCKTTTSAVMVHCLRQKTEEELLETTLKMKFLSLDLQGDPRESQPLLGTVIDGMLLLKTPEELQAERNFHTVPYMVGINKQEFGWIIPMQMLGYPLSEGQLDQKTAMSLLWKSYPLVCIAKELIPEATEKYLGGTDDTVKKKDLFLDLIADVMFGVPSVIVARNHRDAGAPTYMYEYRYRPSFSSDMRPKTVIGDHGDELFSVFGAPFLKEGASEEEIRLSKMVMKFWANFARNGNPNGEGLPHWPEYNQKEGYLQIGANTQAAQKLKDKEVAFWTNLFAKKAVEKPPQ	~130 fold	–	–	–	–	–	–	–	–	–
rCE: wild-type rabbit liver carboxylesterase, Genbank AF036930 (protein, listed as Oryctolagus cuniculus) GSLRFAPPQPAESWSHVKNTTSYPPMCSQDAVSGHMLSELFTNRKENIPLKFSEDCLYLNIYTPADLTKRGRLPVMVWIHGGGLMVGGASTYDGLALSAHENVVVVTIQYRLGIWGFFSTGDEHSRGNWGHLDQVAALRWVQDNIANFGGDPGSVTIFGESAGGQSVSILLLSPLTKNLFHRAISESGVALLSSLFRKNTKSLAEKIAIEAGCKTTTSAVMVHCLRQKTEEELMEVTLKMKFMALDLVGDPKENTAFLTTVIDGVLLPKAPAEILAEKKYNMLPYMVGINQQEFGWIIPMQMLGYPLSEGKLDQKTATELLWKSYPIVNVSKELTPVATEKYLGGTDDPVKKKDLFLDMLADLLFGVPSVNVARHHRDAGAPTYMYEYRYRPSFSSDMRPKTVIGDHGDEIFSVLGAPFLKEGATEEEIKLSKMVMKYWANFARNGNPNGEGLPQWPAYDYKEGYLQIGATTQAAQKLKDKEVAFWTELWAKEAARPRETEHIEL	–	332.7 ± 17.2 nmol/min/mg	243.1 ± 17.0 nmol/min/mg CE	41 pmol/hr/mg CE	75.6 pmol/hr/mg CE	650	601.0 ± 20.5 nmol/min/mg	sensitized	–	–
hCE1: wild-type human liver carboxylesterase, Genbank M73499 (protein, listed as Homo sapiens) MWLRAFILATLSASAAWGHPSSPPVVDTVHGKVLGKFVSLEGFAQPVAIFLGIPFAKPPLGPLRFTPPQPAEPWSFVKNATSYPPMCTQDPKAGQLLSELFTNRKENIPLKLSEDCLYLNIYTPADLTKKNRLPVMVWIHGGGLMVGAASTYDGLALAAHENVVVVTIQYRLGIWGFFSTGDEHSRGNWGHLDQVAALRWVQDNIASFGGNPGSVTIFGESAGGESVSVLVLSPLAKNLFHRAISESGVALTSVLVKKGDVKPLAEQIAITAGCKTTTSAVMVHCLRQKTEEELLETTLKMKFLSLDLQGDPRESQPLLGTVIDGMLLLKTPEELQAERNFHTVPYMVGINKQEFGWLIPMLMSYPLSEGQLDQKTAMSLLWKSYPLVCIAKELIPEATEKYLGGTDDTVKKKDLFLDLIADVMFGVPSVIVARNHRDAGAPTYMYEFQYRPSFSSDMKPKTVIGDHGDELFSVFGAPFLKEGASEEEIRLSKMVMKFWANFARNGNPNGEGLPHWPEYNQKEGYLQIGANTQAAQKLKDKEVAFWTNLFAKKAVEKPPQTEHIEL	–	119.0 ± 5.0 nmol/min/mg	329.2 ± 11.6 nmol/min/mg CE	–	Not Detected	1	1016.4 ± 45.5 nmol/min/mg	not sensitized	1077.1 ± 77.5 nmol/min/mg	–
hCE1 variant hCE1m6 (hCE1mut6; L362M, M363L, K459R, F448Y, Q449R, L358I, S364G, Q362 insertion), SEQ ID NO:3 (Homo sapiens; … (protein) GHPSSPPVVDTVHGKVLGKFVSLEGFAQPVAIFLGIPFAKPPLGPLRFTPPQPAEPWSFVKNATSYPPMCTQDPKAGQLLSELFTNRKENIPLKLSEDCLYLNIYTPADLTKKNRLPVMVWIHGGGLMVGAASTYDGLALAAHENVVVVTIQYRLGIWGFFSTGDEHSRGNWGHLDQVAALRWVQDNIASFGGNPGSVTIFGESAGGESVSVLVLSPLAKNLFHRAISESGVALTSVLVKKGDVKPLAEQIAITAGCKTTTSAVMVHCLRQKTEEELLETTLKMKFLSLDLQGDPRESQPLLGTVIDGMLLLKTPEELQAERNFHTVPYMVGINKQEFGWIIPMQMLGYPLSEGQLDQKTAMSLLWKSYPLVCIAKELIPEATEKYLGGTDDTVKKKDLFLDLIADVMFGVPSVIVARNHRDAGAPTYMYEYRYRPSFSSDMRPKTVIGDHGDELFSVFGAPFLKEGASEEEIRLSKMVMKFWANFARNGNPNGEGLPHWPEYNQKEGYLQIGANTQAAQKLKDKEVAFWTNLFAKKAVEKPPQTEHIEL	–	–	–	–	–	–	–	–	–	6.25 ± 0.59 µM
